From US20150246947A1 (BAXALTA, published 2015) come the findings set out here.

In test [1] the target is T1, human Protein S (human, UniProt P07225 42-676).
T1 construct: Called 'full length Protein S' / 'human full-length Protein S'; It was coated on plates (ELISA), Eu-labeled (LANCE) or immobilized on a chip (Biacore); also called PS; full length Protein S
T1 sequence: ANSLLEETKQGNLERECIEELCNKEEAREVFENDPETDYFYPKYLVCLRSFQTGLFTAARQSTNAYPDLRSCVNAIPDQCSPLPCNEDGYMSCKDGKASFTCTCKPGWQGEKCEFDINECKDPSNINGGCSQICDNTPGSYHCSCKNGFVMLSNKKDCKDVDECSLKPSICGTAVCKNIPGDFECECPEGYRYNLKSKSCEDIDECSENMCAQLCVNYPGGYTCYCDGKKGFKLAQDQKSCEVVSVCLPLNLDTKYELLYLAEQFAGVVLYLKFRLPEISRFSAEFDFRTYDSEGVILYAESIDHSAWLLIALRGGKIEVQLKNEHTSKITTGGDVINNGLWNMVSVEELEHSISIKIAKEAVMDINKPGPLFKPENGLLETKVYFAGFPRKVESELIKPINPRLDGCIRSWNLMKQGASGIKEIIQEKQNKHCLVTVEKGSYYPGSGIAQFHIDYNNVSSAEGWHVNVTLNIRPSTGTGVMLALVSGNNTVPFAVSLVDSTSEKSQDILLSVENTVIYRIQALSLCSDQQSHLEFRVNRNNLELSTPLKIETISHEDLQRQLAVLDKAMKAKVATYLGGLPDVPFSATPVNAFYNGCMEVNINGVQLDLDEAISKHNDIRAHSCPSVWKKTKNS
Nature of the test: Biacore and LANCE IC50. (Surface plasmon resonance follows binding to a sensor surface in real time, without labels.)

The target in test [2] is T2, human Protein S (UniProt P07225 42-676).
T2 chain: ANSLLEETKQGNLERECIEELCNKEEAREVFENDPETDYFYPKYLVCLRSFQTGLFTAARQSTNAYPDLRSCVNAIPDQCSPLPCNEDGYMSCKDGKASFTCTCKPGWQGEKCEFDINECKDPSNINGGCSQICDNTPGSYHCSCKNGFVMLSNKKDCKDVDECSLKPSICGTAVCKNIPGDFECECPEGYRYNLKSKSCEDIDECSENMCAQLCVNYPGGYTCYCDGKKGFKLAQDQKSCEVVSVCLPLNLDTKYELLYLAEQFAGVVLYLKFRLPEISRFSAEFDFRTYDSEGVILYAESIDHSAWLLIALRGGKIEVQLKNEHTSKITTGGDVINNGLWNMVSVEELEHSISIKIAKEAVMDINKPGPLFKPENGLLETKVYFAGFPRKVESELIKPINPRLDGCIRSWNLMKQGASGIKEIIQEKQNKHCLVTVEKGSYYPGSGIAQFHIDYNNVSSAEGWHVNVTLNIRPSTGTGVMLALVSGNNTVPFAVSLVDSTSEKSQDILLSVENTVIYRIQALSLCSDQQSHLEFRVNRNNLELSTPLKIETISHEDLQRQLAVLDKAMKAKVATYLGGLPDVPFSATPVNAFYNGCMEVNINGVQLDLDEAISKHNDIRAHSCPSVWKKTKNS
Nature of the test: LANCE competition. Put shortly: (§1)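 This homogeneous time-resolved FRET competition assay (LANCE) used europium-labelled Protein S, ULight-labelled streptavidin and a biotinylated tracer peptide, with unlabelled test peptide titrated in three-fold steps. Final concentrations were 10 nM Protein S, 100 nM streptavidin and 300 nM tracer in 50 µl (or 2 nM Protein S and 60 nM tracer on a Tecan F500). Samples were incubated 1 hour at room temperature and read at Ex 340 nm, Em 665 nm. IC50 came from non-linear regression of the 665 nm signals.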

Test [3] concerns the target T2, human Protein S. As to the kind of experiment: LANCE competition. A digest of the protocol: as §1
A general note: Time-resolved FRET reads energy transfer from a long-lived donor to a nearby acceptor.

Test [4] concerns the target T2, human Protein S. As to the kind of experiment: LANCE competition. Put shortly: as §1
The target in test [5] is T1, human Protein S. Nature of the test: cell-based or functional assay.
Test [6] concerns the target T1, human Protein S. Nature of the test: LANCE TR-FRET competition; Eu-labeled Protein S; competitor tracer JBS0684. The procedure:
Peptides also were characterized in a competition, homogenous europium-based TR-FRET assay (LANCE IC50 assay) using JBS0684 as a tracer (i.e., competitor for Protein S binding). The following reagents were mixed together in a Perkin-Elmer ProxiPlate MTP well (indicated concentration is the final concentration): Eu-labeled Protein S (10 nM), Ulight™-labeled Streptavidin (100 nM), tracer (JBS0684 (300 nM)), and peptide (titrated in three-fold dilution steps). The final volume was 50 μl/well. The reaction mix was incubated for 1 hour at room temperature, then the fluorescence emission at 665 nm was recorded on a multi-mode reader (SpectraMax® M5, Molecular Devices) using the following instrument settings: Ex 340 nm, Em 665 nm, delay 50 μsec, integration 100 μsec, reads 100. Binding of tracer peptides to soluble europium-labeled Protein S was detected by Streptavidin labeled with an acceptor fluorophor (ULight™). Inhibition of tracer-binding to Protein S by a non-biotinylated peptide results in a decrease of TR-FRET between the Eu-labeled Protein S and ULight™-labeled Streptavidin. IC50 values were obtained from peptide titration curves at constant tracer concentration using non-linear regression of the fluorescence emission signals at 665 nm.
Several peptides having multiple substitutions in the JBS2572 amino acid sequence were synthesized and evaluated using LANCE IC50 and CAT assays described above. For the assays, pooled normal plasma was supplemented with 3 nM APC and triggered with 6 pM TF, and 15 μM phospholipids (DOPC/POPS 80/20). Stock APC was diluted with TF-PL-MIX to 24 nM (plasma concentration: 3 nM).

“And” between values parts separate entries of the source, which are not always exact repeats. Equal values may be shown once. Read-outs that look alike come from different tables or passages of the source. Non-standard residues stand in square brackets, D forms with d. Tle = CC(C)(C)[C@H](N)C(=O)O

With Ac-EGYVSAGWYDYNQDIYFEFA-NH2 [JBS3260], the binding result in the test with human Protein S [1] is recorded as “binds”. Besides, the half-maximal inhibitory concentration (IC50) (in general, the concentration at which inhibition is half-maximal) with human Protein S [2] came out at 1.6 nM.
Regarding Ac-YGIVSAGWYDYNTDTYYEFY-NH2 [JBS3221], the IC50 with human Protein S [3] amounted to 0.6 nM. For the same molecule, in the test with human Protein S [1], the binding result was “binds”.
Regarding Ac-YGLVEAGWYDYNNDTYMEFT-NH2 [JBS3201], the IC50 amounted to 1.8 nM in the test with human Protein S [4] and 1.9 nM with human Protein S [6]. In addition, the “CAT EC50” value with human Protein S [5] turned out to be 127 nM.
For Ac-YGLVSAGWYDYNFDHYMEFT-NH2 [JBS3196], the figures for the concentration for half-maximal inhibition (IC50) with human Protein S [4] and with human Protein S [6] were 2.5 nM and 2.2 nM, respectively. In the test with human Protein S [5], the “CAT EC50” value stood at 155 nM.
On to Ac-DVHVSAGWYDYNKDIYYEFT-NH2 [JBS3296], for which the binding result in the test with human Protein S [1] is recorded as “binds”. This molecule also came in with an IC50 in the test with human Protein S [4] of 2.2 nM.
In the case of Ac-TGLVSAGWYDYNNDTYREFT-NH2 [JBS3194], the values for the IC50 in the test with human Protein S [4] and with human Protein S [6] were 2 nM and 1.8 nM, respectively. In the test with human Protein S [5], the “CAT EC50” value amounted to 122 nM.
Take Ac-YVEVSAGWYDYNTDTYSEFW-NH2 [JBS3281]: the binding result with human Protein S [1] is given as “binds”. In addition, the concentration for half-maximal inhibition (IC50) with human Protein S [2] was 1.7 nM and 2.3 nM.
Turning to Ac-EYYVSAGWYDYMTDTYTEFE-NH2 [JBS3235], the binding result with human Protein S [1] is listed as “binds”. The molecule further returned an IC50 with human Protein S [4] of 1.4 nM.
In the case of Ac-HIYVTAGWYDYNTDTYHEFE-NH2 [JBS3284], the binding result with human Protein S [1] is “binds”. The molecule also yielded an IC50 with human Protein S [2] of 1.3 nM.
With Ac-YGIVSAGWYDMNNDYYFEFY-NH2 [JBS3258], the binding result with human Protein S [1] is “binds”. Moreover, the concentration for half-maximal inhibition (IC50) with human Protein S [2] was 0.8 nM and 0.9 nM.
On to Ac-TGLVEAGWYDYNFDVYREFT-NH2 [JBS3193], for which the half-maximal inhibitory concentration (IC50) was 2.7 nM with human Protein S [4] and 2.5 nM with human Protein S [6]. In addition, the “CAT EC50” value in the test with human Protein S [5] came out at 116 nM.
Take Ac-EVIVSAGWYDYNNDIYYEFW-NH2 [JBS3274]: the binding result in the test with human Protein S [1] is on record as “binds”. Also, in the test with human Protein S [4], the IC50 is 1 nM.
On the same counts, the results for Ac-EYYVSAGWYDYNNDIYYEFE-NH2 [JBS3218] are “binds” and 0.9 nM.
On the same counts, the results for Ac-EYYVTAGWYDYNTDTYYEFE-NH2 [JBS3232] are “binds” and 0.9 nM.
Taken in the same sequence, the figures for Ac-EYYVEAGWYEYNTDNYYPFE-NH2 [JBS3236] were “binds” and 2.6 nM.
For Ac-EYYVSAGWYDYNTDTYYEFT-NH2 [JBS3314], the binding result with human Protein S [1] is given as “binds”. The molecule further yielded a concentration for half-maximal inhibition (IC50) with human Protein S [2] of 0.8 nM.
On to Ac-DNYVSAGWYDYNTDTYYEFY-NH2 [JBS3297], for which the binding result in the test with human Protein S [1] is “binds”. Moreover, the 50% inhibitory concentration (IC50) in the test with human Protein S [2] is 1 nM.

B1: JBS3202 (peptide)
peptide: Ac-TGL[Tle]SAGWYDYNFDTYREFT-NH2
SMILES: CC(=O)N[C@H](C(=O)NCC(=O)N[C@@H](CC(C)C)C(=O)N[C@H](C(=O)N[C@@H](CO)C(=O)N[C@@H](C)C(=O)NCC(=O)N[C@@H](Cc1c[nH]c2ccccc12)C(=O)N[C@@H](Cc1ccc(O)cc1)C(=O)N[C@@H](CC(=O)O)C(=O)N[C@@H](Cc1ccc(O)cc1)C(=O)N[C@@H](CC(N)=O)C(=O)N[C@@H](Cc1ccccc1)C(=O)N[C@@H](CC(=O)O)C(=O)N[C@H](C(=O)N[C@@H](Cc1ccc(O)cc1)C(=O)N[C@@H](CCCNC(=N)N)C(=O)N[C@@H](CCC(=O)O)C(=O)N[C@@H](Cc1ccccc1)C(=O)N[C@H](C(N)=O)[C@@H](C)O)[C@@H](C)O)C(C)(C)C)[C@@H](C)O
Take B1: the “CAT EC50” value in the test with human Protein S [5] was 129 nM. Besides, the concentration for half-maximal inhibition (IC50) with human Protein S [6] was 1.6 nM.
Taken in the same sequence, the figures for Ac-TGL[Tle]SAGWYDYNFDHYMEFT-NH2 [JBS3203] were 127 nM and 1.8 nM.
Take Ac-TGLVSAGWYDYNNDVYREFT-NH2 [JBS3195]: the IC50 in the test with human Protein S [4] worked out at 2.1 nM; in the test with human Protein S [6], 2 nM. Further, the “CAT EC50” value in the test with human Protein S [5] was found to be 139 nM.
For Ac-ESYVSAGWYDYNTDTYYEFF-NH2 [JBS3223], the binding result with human Protein S [1] is “binds”. The molecule also came in with an IC50 with human Protein S [4] of 0.7 nM.
